Source: US6361968

How the values were obtained:
[1] = CD thermal melts, homodimer
P16220 = assay: thermal melt, homodimerization (FIG. 3)
P05412 = assay: thermal melt, homodimer (FIG. 4)

B1: C/EBP bZIP domain (GCN4-C/EBP chimeric protein) (protein)
chain: SEYQPSLFALNPMGFSPLDGSKSTNENVSASTSTAKPMVGQLIFDKFIKTEEDPGKAKKSVDKNSNEYRVRRERNNIAVRKSRDKAKQRNVETQQKVLELTSDNDRLRKRVEQLSRELDTLRGIFRQLPESSLVKAMGNCA
[1]
  Tm decrease in 50 mM KCl against 150 mM KCl: less stable by 4 °C in 50 mM KCl compared with 150 mM KCl

B2: CREB (unmodified) (protein)
chain: MASSPALPTQPAEEAARKREVRLMKNREAARECRRKKKEYVKCLENRVAVLENQNKTLIEELKALKDLYCHKSD
P16220
  Tm: Tm=47 °C

B3: c-Jun (unmodified) (protein)
chain: PLSPIDMESQERIKAERKRMRNRIAASKCRKRKLERIARLEEKVKTLKAQNSELASTANMLREQVAQLKQKVMNHVNSGCQLMLTQQLQTF
P05412
  Tm: homodimerization of unmodified c-Jun had a melting temperature of 29.4 °C
